Drawing on paper PMC10786891, “Massively parallel profiling of RNA-targeting CRISPR-Cas13d”, this text covers Kd for 23 molecules.

To fix the notation:
T1: EsCas13d, nuclease-dead (Eubacterium siraeum, UniProt B0MS50, R295A;H300A;R849A;H854A)
T1 sequence: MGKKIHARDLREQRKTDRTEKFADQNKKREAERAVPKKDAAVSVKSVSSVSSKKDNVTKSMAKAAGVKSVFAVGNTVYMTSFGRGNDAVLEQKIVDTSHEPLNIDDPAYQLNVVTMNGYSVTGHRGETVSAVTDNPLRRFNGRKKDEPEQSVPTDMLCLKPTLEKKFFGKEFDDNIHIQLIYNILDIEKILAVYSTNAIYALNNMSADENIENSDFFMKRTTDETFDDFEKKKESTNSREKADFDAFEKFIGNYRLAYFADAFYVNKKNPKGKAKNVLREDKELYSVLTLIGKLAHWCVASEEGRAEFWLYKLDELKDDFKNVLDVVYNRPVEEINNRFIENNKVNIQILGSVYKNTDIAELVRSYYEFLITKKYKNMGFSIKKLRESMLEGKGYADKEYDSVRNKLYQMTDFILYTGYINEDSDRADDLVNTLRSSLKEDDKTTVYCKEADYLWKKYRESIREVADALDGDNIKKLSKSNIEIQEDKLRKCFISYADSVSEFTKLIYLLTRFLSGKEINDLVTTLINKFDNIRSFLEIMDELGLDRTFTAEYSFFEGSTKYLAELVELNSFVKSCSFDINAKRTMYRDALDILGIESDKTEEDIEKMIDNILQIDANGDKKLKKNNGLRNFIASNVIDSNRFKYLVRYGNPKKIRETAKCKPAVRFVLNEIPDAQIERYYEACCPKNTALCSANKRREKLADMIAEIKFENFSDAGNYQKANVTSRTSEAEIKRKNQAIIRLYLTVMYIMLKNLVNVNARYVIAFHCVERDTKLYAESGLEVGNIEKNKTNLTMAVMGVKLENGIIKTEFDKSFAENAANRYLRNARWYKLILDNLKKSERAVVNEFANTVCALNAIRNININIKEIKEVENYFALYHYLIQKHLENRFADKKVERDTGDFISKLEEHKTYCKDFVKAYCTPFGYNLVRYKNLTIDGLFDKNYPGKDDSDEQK

B1: target 2 MT 5'PFS GUU 3'PFS CAC (mixed)
RNA 1: CACCCGUGCAAAAUUGCAGGGGUCUAAAACCUUCUCCAAAUUGUUUCAUCCU
RNA 2: GGGAAUGGAUCCACAUCUACGAAUUCGUUAGGAUGAAACAAUUUGGAGAAGCACAGAUCGGAAGAGCACACGU
B2: target 2 MT 5'PFS UCA 3'PFS AUA (mixed)
RNA 1: CACCCGUGCAAAAUUGCAGGGGUCUAAAACCUUCUCCAAAUUGUUUCAUCCU
RNA 2: GGGAAUGGAUCCACAUCUACGAAUUCUCAAGGAUGAAACAAUUUGGAGAAGAUAAGAUCGGAAGAGCACACGU
B3: target 2 MT 5'PFS UAU 3'PFS CUU (mixed)
RNA 1: CACCCGUGCAAAAUUGCAGGGGUCUAAAACCUUCUCCAAAUUGUUUCAUCCU
RNA 2: GGGAAUGGAUCCACAUCUACGAAUUCUAUAGGAUGAAACAAUUUGGAGAAGCUUAGAUCGGAAGAGCACACGU
B4: target 2 MT 5'PFS GCG 3'PFS CAU (mixed)
RNA 1: CACCCGUGCAAAAUUGCAGGGGUCUAAAACCUUCUCCAAAUUGUUUCAUCCU
RNA 2: GGGAAUGGAUCCACAUCUACGAAUUCGCGAGGAUGAAACAAUUUGGAGAAGCAUAGAUCGGAAGAGCACACGU
B5: target 2 MT 5'PFS GAA 3'PFS CCG (mixed)
RNA 1: CACCCGUGCAAAAUUGCAGGGGUCUAAAACCUUCUCCAAAUUGUUUCAUCCU
RNA 2: GGGAAUGGAUCCACAUCUACGAAUUCGAAAGGAUGAAACAAUUUGGAGAAGCCGAGAUCGGAAGAGCACACGU
B6: target 2 MT 5'PFS UAU 3'PFS CUA (mixed)
RNA 1: CACCCGUGCAAAAUUGCAGGGGUCUAAAACCUUCUCCAAAUUGUUUCAUCCU
RNA 2: GGGAAUGGAUCCACAUCUACGAAUUCUAUAGGAUGAAACAAUUUGGAGAAGCUAAGAUCGGAAGAGCACACGU
B7: target 2 MT 5'PFS GAG 3'PFS UAG (mixed)
RNA 1: CACCCGUGCAAAAUUGCAGGGGUCUAAAACCUUCUCCAAAUUGUUUCAUCCU
RNA 2: GGGAAUGGAUCCACAUCUACGAAUUCGAGAGGAUGAAACAAUUUGGAGAAGUAGAGAUCGGAAGAGCACACGU
B8: target 2 MT 5'PFS GUA 3'PFS CGA (mixed)
RNA 1: CACCCGUGCAAAAUUGCAGGGGUCUAAAACCUUCUCCAAAUUGUUUCAUCCU
RNA 2: GGGAAUGGAUCCACAUCUACGAAUUCGUAAGGAUGAAACAAUUUGGAGAAGCGAAGAUCGGAAGAGCACACGU
B9: target 2 MT 5'PFS UAU 3'PFS CUC (mixed)
RNA 1: CACCCGUGCAAAAUUGCAGGGGUCUAAAACCUUCUCCAAAUUGUUUCAUCCU
RNA 2: GGGAAUGGAUCCACAUCUACGAAUUCUAUAGGAUGAAACAAUUUGGAGAAGCUCAGAUCGGAAGAGCACACGU
B10: target 2 MT 5'PFS GUU 3'PFS CAU (mixed)
RNA 1: CACCCGUGCAAAAUUGCAGGGGUCUAAAACCUUCUCCAAAUUGUUUCAUCCU
RNA 2: GGGAAUGGAUCCACAUCUACGAAUUCGUUAGGAUGAAACAAUUUGGAGAAGCAUAGAUCGGAAGAGCACACGU
B11: target 2 MT 5'PFS UCA 3'PFS AUC (mixed)
RNA 1: CACCCGUGCAAAAUUGCAGGGGUCUAAAACCUUCUCCAAAUUGUUUCAUCCU
RNA 2: GGGAAUGGAUCCACAUCUACGAAUUCUCAAGGAUGAAACAAUUUGGAGAAGAUCAGAUCGGAAGAGCACACGU
B12: target 2 MT 5'PFS GAG 3'PFS UAU (mixed)
RNA 1: CACCCGUGCAAAAUUGCAGGGGUCUAAAACCUUCUCCAAAUUGUUUCAUCCU
RNA 2: GGGAAUGGAUCCACAUCUACGAAUUCGAGAGGAUGAAACAAUUUGGAGAAGUAUAGAUCGGAAGAGCACACGU
B13: target 2 MT 5'PFS GCG 3'PFS CAC (mixed)
RNA 1: CACCCGUGCAAAAUUGCAGGGGUCUAAAACCUUCUCCAAAUUGUUUCAUCCU
RNA 2: GGGAAUGGAUCCACAUCUACGAAUUCGCGAGGAUGAAACAAUUUGGAGAAGCACAGAUCGGAAGAGCACACGU
B14: target 2 MT 5'PFS GGC 3'PFS UUU (mixed)
RNA 1: CACCCGUGCAAAAUUGCAGGGGUCUAAAACCUUCUCCAAAUUGUUUCAUCCU
RNA 2: GGGAAUGGAUCCACAUCUACGAAUUCGGCAGGAUGAAACAAUUUGGAGAAGUUUAGAUCGGAAGAGCACACGU
B15: target 2 MT 5'PFS GUA 3'PFS CGC (mixed)
RNA 1: CACCCGUGCAAAAUUGCAGGGGUCUAAAACCUUCUCCAAAUUGUUUCAUCCU
RNA 2: GGGAAUGGAUCCACAUCUACGAAUUCGUAAGGAUGAAACAAUUUGGAGAAGCGCAGAUCGGAAGAGCACACGU
B16: target 2 MT 5'PFS GAA 3'PFS CCA (mixed)
RNA 1: CACCCGUGCAAAAUUGCAGGGGUCUAAAACCUUCUCCAAAUUGUUUCAUCCU
RNA 2: GGGAAUGGAUCCACAUCUACGAAUUCGAAAGGAUGAAACAAUUUGGAGAAGCCAAGAUCGGAAGAGCACACGU
B17: target 2 MT 5'PFS UCA 3'PFS AUU (mixed)
RNA 1: CACCCGUGCAAAAUUGCAGGGGUCUAAAACCUUCUCCAAAUUGUUUCAUCCU
RNA 2: GGGAAUGGAUCCACAUCUACGAAUUCUCAAGGAUGAAACAAUUUGGAGAAGAUUAGAUCGGAAGAGCACACGU
B18: target 2 MT 5'PFS UGU 3'PFS CCG (mixed)
RNA 1: CACCCGUGCAAAAUUGCAGGGGUCUAAAACCUUCUCCAAAUUGUUUCAUCCU
RNA 2: GGGAAUGGAUCCACAUCUACGAAUUCUGUAGGAUGAAACAAUUUGGAGAAGCCGAGAUCGGAAGAGCACACGU
B19: target 2 MT 5'PFS UCA 3'PFS AUG (mixed)
RNA 1: CACCCGUGCAAAAUUGCAGGGGUCUAAAACCUUCUCCAAAUUGUUUCAUCCU
RNA 2: GGGAAUGGAUCCACAUCUACGAAUUCUCAAGGAUGAAACAAUUUGGAGAAGAUGAGAUCGGAAGAGCACACGU
B20: target 2 MT 5'PFS UAU 3'PFS CUG (mixed)
RNA 1: CACCCGUGCAAAAUUGCAGGGGUCUAAAACCUUCUCCAAAUUGUUUCAUCCU
RNA 2: GGGAAUGGAUCCACAUCUACGAAUUCUAUAGGAUGAAACAAUUUGGAGAAGCUGAGAUCGGAAGAGCACACGU
B21: target 2 MT 5'PFS AAA 3'PFS AAG (mixed)
RNA 1: CACCCGUGCAAAAUUGCAGGGGUCUAAAACCUUCUCCAAAUUGUUUCAUCCU
RNA 2: GGGAAUGGAUCCACAUCUACGAAUUCAAAAGGAUGAAACAAUUUGGAGAAGAAGAGAUCGGAAGAGCACACGU
B22: target 1 insG 3' of 22,insU 3' of 12 (mixed)
RNA 1: CACCCGUGCAAAAAUGCAGGGGUCUAAAACUGAGCGGAUAACCUCUCUAUGG
RNA 2: GGGAAUGGAUCCACAUCUACGAAUUCGUACGCAUAGAGAGGUUUAUCCGCUCACCGAGAUCGGAAGAGCACACGU
B23: target 1 insG 3' of 1,insG 3' of 1 (mixed)
RNA 1: CACCCGUGCAAAAAUGCAGGGGUCUAAAACUGAGCGGAUAACCUCUCUAUGG
RNA 2: GGGAAUGGAUCCACAUCUACGAAUUCGUACCAUAGAGAGGUUAUCCGCUCAGGCCGAGAUCGGAAGAGCACACGU

The target in the data set is T1, EsCas13d, nuclease-dead. Briefly: crRNA (strand 1, pre-loaded); Mg2+; 40 mM Tris-HCl pH 7.5, 150 mM NaCl, 6 mM MgCl2, 1 mM DTT, 0.1% Tween-20, 0.2 mg/ml BSA; 25 C; 10 min per concentration, then washed. The following applies: tags: His6-TwinStrep-SUMO cleaved; N-terminal SNAP kept (SNAP-Surface 488); label: 3' end held by stalled T7 RNA polymerase.
For orientation: Kd means the free concentration of one partner at which half of the binding sites on the other are occupied at equilibrium, for simple one-to-one binding. A low value points to higher affinity. In turn, B1 gave a Kd of 15.3 ± 2.3 nM.
B2 displayed a Kd of 6.2 ± 2 nM.
B3 showed a Kd of 54 ± 14 nM.
In turn, B4 came in with a Kd of 13 ± 4 nM.
With B5, the affinity, expressed as Kd, was 10.5 ± 1.2 nM.
In turn, B6 showed a Kd of 22.7 ± 2.8 nM. Compared with the last molecule, the Kd is about 2.2-fold higher.
For the molecule B7, the equilibrium dissociation constant (Kd) was found to be 6.2 ± 0.7 nM.
Molecule B8 registered a Kd of 6.4 ± 0.5 nM.
Turning to B9, the Kd stood at 38 ± 7 nM.
B10 displayed a Kd of 14.2 ± 1.9 nM. This Kd is about 2.7-fold lower than that of the molecule before.
On to B11, for which the Kd is 3.6 ± 0.6 nM.
Take B12: the Kd amounted to 5.6 ± 0.5 nM.
Consider B13, for which the Kd came to 10.4 ± 1.3 nM.
B14 displayed a dissociation constant Kd of 27 ± 5 nM.
B15 showed a Kd of 7.4 ± 0.5 nM.
B16 displayed a Kd of 25 ± 6 nM. This Kd lies about 3.4-fold higher than the previous one.
To B17 belongs 4.4 ± 0.5 nM; to B18, 12.6 ± 1.4 nM.
The molecule B19 returned a Kd of 4 ± 1 nM.
B20 came in with a Kd of 17.4 ± 1.9 nM.
Molecule B21 returned a Kd of 4 ± 0.5 nM.
B22 had a Kd of 20.5 ± 1.8 nM.
Molecule B23 returned a Kd of 8.6 ± 0.5 nM.
